The record followed here is publication PMC9958480, “Structural insights into the recognition of telomeric variant repeat TTGGGG by broad-complex, tramtrack and bric-à-brac - zinc finger protein ZBTB10”.

The target in the data set is T1, ZBTB10 ZF1-2 R767Q (human, UniProt Q96DT7 713-779, R767Q).
T1 sequence: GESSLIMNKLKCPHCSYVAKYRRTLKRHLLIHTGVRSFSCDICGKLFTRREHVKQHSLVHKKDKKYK
The data set is described as follows: X-ray crystallography; Zn2+; 1.9 A, P1; ITC at 20 C, ~30 uM dsDNA in cell, ~300 uM protein in syringe; proteins dialyzed in 20 mM Tris-HCl pH 7.5, 150 mM NaCl (ITC buffer not separately stated). Particulars: protein: recombinant; tags: MBP removed by PreScission; 5' overhang 1 nt on each strand (T and A).

B1: TTAGGG crystal duplex (dsDNA)
DNA 1: TTAGGGTTATA
DNA 2: ATATAACCCTA
B1: the binding result is recorded as “binds”.
